The results in this text go back to patent publication US20190315842A1 (DUKE UNIVERSITY, published 2019).

The target in assay [1] is systemic lupus erythematosus autoantigen SSA. The experiment in a line: AtheNA Multi-Lyte ANA, Ab at 12.5 ug/ml.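 Further: monoclonal antibodies screened for binding to a panel of nuclear autoantigens (SSA, SSB, Sm, RNP, Scl-70, Jo-1, dsDNA, CentB, histones), with anti-HIV and anti-RSV antibodies as controls.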
Procedure: (§1) All 7 mAbs were tested against the AtheNA Multi-Lyte panel of autoantigens. The AtheNA Multi-Lyte ANA test for a panel of nuclear antigens: systemic lupus erythematosus autoantigens SSA and SSB, sphingomyelin (Sm), ribonucleoprotein (RNP), sclerosis autoantigen (Scl-70), histidine-tRNA ligase (Jo-1), double-stranded DNA (dsDNA), centromere B (CentB), and histones. 4e10 (Anti HIV, NIH AIDS Reagent Program) and SYNAGIS® (anti-RSV monoclonal antibody palivizumab; “Synagis”) were used a controls.
The target in assay [2] is T1, Sm (sphingomyelin).
T1 construct: in an ANA panel of nuclear antigens Sm is usually the Smith ribonucleoprotein antigen; Kept, but see recheck
The assay can be described thus: AtheNA Multi-Lyte ANA, Ab at 12.5 ug/ml.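 Further: monoclonal antibodies screened for binding to a panel of nuclear autoantigens (SSA, SSB, Sm, RNP, Scl-70, Jo-1, dsDNA, CentB, histones), with anti-HIV and anti-RSV antibodies as controls.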
Procedure: as §1

The target of assay [3] is ribonucleoprotein (RNP). The assay can be described thus: AtheNA Multi-Lyte ANA, Ab at 12.5 ug/ml.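 Further: monoclonal antibodies screened for binding to a panel of nuclear autoantigens (SSA, SSB, Sm, RNP, Scl-70, Jo-1, dsDNA, CentB, histones), with anti-HIV and anti-RSV antibodies as controls.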
Procedure: as §1
The target in assay [4] is T2, sclerosis autoantigen (Scl-70) (UniProt P11387 2-765, limits assumed).
T2 sequence (looked up): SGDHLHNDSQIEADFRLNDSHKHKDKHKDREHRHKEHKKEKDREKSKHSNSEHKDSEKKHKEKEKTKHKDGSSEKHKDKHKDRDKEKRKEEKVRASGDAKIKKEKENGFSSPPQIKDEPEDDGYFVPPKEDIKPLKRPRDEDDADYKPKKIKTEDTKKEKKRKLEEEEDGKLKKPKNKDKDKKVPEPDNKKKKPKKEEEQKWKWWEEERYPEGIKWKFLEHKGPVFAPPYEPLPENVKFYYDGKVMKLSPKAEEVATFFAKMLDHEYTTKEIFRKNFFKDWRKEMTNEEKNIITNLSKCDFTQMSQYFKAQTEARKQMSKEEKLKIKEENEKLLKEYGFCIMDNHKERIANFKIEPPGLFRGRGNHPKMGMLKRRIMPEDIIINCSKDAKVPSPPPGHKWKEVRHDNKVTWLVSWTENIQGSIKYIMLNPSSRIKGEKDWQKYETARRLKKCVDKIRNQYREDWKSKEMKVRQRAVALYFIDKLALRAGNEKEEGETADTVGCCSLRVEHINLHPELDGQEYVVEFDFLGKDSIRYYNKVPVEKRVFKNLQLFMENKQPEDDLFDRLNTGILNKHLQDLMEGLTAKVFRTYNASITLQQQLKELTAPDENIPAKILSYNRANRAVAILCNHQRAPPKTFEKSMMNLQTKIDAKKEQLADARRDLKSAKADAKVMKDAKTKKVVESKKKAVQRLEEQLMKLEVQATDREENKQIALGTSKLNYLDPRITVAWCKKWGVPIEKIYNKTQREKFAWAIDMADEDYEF
The experiment in a line: AtheNA Multi-Lyte ANA, Ab at 12.5 ug/ml.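 Further: monoclonal antibodies screened for binding to a panel of nuclear autoantigens (SSA, SSB, Sm, RNP, Scl-70, Jo-1, dsDNA, CentB, histones), with anti-HIV and anti-RSV antibodies as controls.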
Procedure: as §1

Assay [5] addresses T3, histidine-tRNA ligase (Jo-1) (UniProt P12081 2-509).
T3 sequence (looked up): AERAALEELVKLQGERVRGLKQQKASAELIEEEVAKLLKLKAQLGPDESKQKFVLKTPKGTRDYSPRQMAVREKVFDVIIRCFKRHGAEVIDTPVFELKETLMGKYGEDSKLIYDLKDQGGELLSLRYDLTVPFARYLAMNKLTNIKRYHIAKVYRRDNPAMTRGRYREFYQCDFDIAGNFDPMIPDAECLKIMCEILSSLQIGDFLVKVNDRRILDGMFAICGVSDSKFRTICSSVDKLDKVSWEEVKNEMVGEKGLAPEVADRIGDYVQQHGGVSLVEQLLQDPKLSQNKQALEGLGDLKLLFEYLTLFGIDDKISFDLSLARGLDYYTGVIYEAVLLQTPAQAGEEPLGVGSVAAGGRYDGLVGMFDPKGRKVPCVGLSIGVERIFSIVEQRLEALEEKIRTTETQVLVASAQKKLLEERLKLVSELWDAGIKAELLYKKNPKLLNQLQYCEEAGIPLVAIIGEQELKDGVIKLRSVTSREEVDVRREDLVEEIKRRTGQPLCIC
The experiment in a line: AtheNA Multi-Lyte ANA, Ab at 12.5 ug/ml.
Procedure: as §1

The target of assay [6] is systemic lupus erythematosus autoantigen SSA. The assay can be described thus: AtheNA Multi-Lyte ANA, Ab at 50 ug/ml.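 Further: monoclonal antibodies probed against a nuclear autoantigen panel (SSA, SSB, Sm, RNP, Scl-70, Jo-1, dsDNA, CentB, histones), with anti-HIV 4E10 and palivizumab as control antibodies.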
Assay [7] has as its target T1, Sm (sphingomyelin). The experiment in a line: AtheNA Multi-Lyte ANA, Ab at 50 ug/ml.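 Further: monoclonal antibodies probed against a nuclear autoantigen panel (SSA, SSB, Sm, RNP, Scl-70, Jo-1, dsDNA, CentB, histones), with anti-HIV 4E10 and palivizumab as control antibodies.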
Assay [8] has as its target ribonucleoprotein (RNP). The assay can be described thus: AtheNA Multi-Lyte ANA, Ab at 50 ug/ml.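 Further: monoclonal antibodies probed against a nuclear autoantigen panel (SSA, SSB, Sm, RNP, Scl-70, Jo-1, dsDNA, CentB, histones), with anti-HIV 4E10 and palivizumab as control antibodies.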
Assay [9] deals with T2, sclerosis autoantigen (Scl-70). The assay can be described thus: AtheNA Multi-Lyte ANA, Ab at 50 ug/ml.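 Further: monoclonal antibodies probed against a nuclear autoantigen panel (SSA, SSB, Sm, RNP, Scl-70, Jo-1, dsDNA, CentB, histones), with anti-HIV 4E10 and palivizumab as control antibodies.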
Assay [10] deals with T3, histidine-tRNA ligase (Jo-1). The assay can be described thus: AtheNA Multi-Lyte ANA, Ab at 50 ug/ml.
Assay [11] concerns the target systemic lupus erythematosus autoantigen SSA. The assay can be described thus: AtheNA Multi-Lyte ANA, Ab at 6.25 ug/ml.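 Further: monoclonal antibodies screened for reactivity against a panel of nuclear autoantigens, with an anti-HIV and an anti-RSV monoclonal antibody serving as controls.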
Procedure: as §1
Assay [12] concerns the target T1, Sm (sphingomyelin). The assay can be described thus: AtheNA Multi-Lyte ANA, Ab at 6.25 ug/ml.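 Further: monoclonal antibodies screened for reactivity against a panel of nuclear autoantigens, with an anti-HIV and an anti-RSV monoclonal antibody serving as controls.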
Procedure: as §1
Assay [13] deals with ribonucleoprotein (RNP). The assay can be described thus: AtheNA Multi-Lyte ANA, Ab at 6.25 ug/ml.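 Further: monoclonal antibodies screened for reactivity against a panel of nuclear autoantigens, with an anti-HIV and an anti-RSV monoclonal antibody serving as controls.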
Procedure: as §1
The target of assay [14] is T2, sclerosis autoantigen (Scl-70). The experiment in a line: AtheNA Multi-Lyte ANA, Ab at 6.25 ug/ml.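 Further: monoclonal antibodies screened for reactivity against a panel of nuclear autoantigens, with an anti-HIV and an anti-RSV monoclonal antibody serving as controls.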
Procedure: as §1
The target of assay [15] is T3, histidine-tRNA ligase (Jo-1). The experiment in a line: AtheNA Multi-Lyte ANA, Ab at 6.25 ug/ml.
Procedure: as §1
Assay [16] deals with T4, systemic lupus erythematosus autoantigen SSB (UniProt P05455 1-408, limits assumed).
T4 sequence (looked up): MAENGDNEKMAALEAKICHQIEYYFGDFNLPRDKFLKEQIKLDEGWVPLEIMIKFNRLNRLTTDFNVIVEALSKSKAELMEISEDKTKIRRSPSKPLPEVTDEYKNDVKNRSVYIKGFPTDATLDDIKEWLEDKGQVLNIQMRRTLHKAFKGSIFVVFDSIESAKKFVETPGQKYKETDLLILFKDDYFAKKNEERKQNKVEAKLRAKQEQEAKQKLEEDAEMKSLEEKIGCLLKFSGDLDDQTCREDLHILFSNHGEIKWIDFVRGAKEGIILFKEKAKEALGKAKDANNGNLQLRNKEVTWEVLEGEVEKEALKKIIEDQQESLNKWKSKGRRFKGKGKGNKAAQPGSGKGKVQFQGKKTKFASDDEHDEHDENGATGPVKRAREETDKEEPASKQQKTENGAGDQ
The assay can be described thus: AtheNA Multi-Lyte ANA, Ab at 12.5 ug/ml.
Procedure: as §1

B1: Ab7957/293i (antibody, IgG1, V domains shown)
VH: LVESGGGVVPPGKSLRLSCAASGFTFSLYGIHWVRQAPGKGLEWVAVISYDGNTKYYTDSVKGRFTISRDNAKNTIYLQMNSLRLDDTAVYYCAKGAANSATFDFWGRGTMVTVSS
VL: MTQSPDSLTLSLGERATINCRSSRTVLYRSNNKNYLAWYQHKPGQPPKLLMSWASTRETGVPDRFSGSGSGTHFTLTITSLQPEDVAVYYCQQYYSPPWTFGQGTKVEIR
notes: Recombinant human antibody with IgG1 heavy chain backbone and kappa light chain constant; they begin at LVESGGG and MTQSP; also called Ab7957i; mAb 7957
On to B1, for which the AtheNA signal in assay [1] amounted to 9; in the assay with Sm (sphingomyelin) [2], 1; with ribonucleoprotein (RNP) [3] it was 3; in assay [4] it was 2; in assay [5], 3; in assay [6], 11. In addition, the AtheNA signal stood at 4 with Sm (sphingomyelin) [7]; 6 with ribonucleoprotein (RNP) [8]; 2 in assay [9]; 5 in [10]; 9 in assay [11]; 3 with Sm (sphingomyelin) [12]. Besides, the AtheNA signal in the assay with ribonucleoprotein (RNP) [13] was 3; in assay [14], 2; in assay [15], 3.

B2: Ab7968 (antibody, IgG1, V domains shown)
VH: LVESGGGVVQPGRSLRLSCAASGFTFSRYGMHWVRQAPGKGLEWVAVMSYDGSTKYYADSVKGRFAISRDNPKNTLFLQMNSLRPDDTAVYYCAKGGAAAAVMDVWGKGTTVTVSS
VL: MTQSPDSLTVSLGERATISCKSSQRLLYSSNNKNYLAWYQQKPGQPPKLLMYWASTRESGVPDRFSGSGSGTDFSLTISSLQAEDVAVYYCQQYYNPPWTFGQGTKVEVK
notes: Recombinant human antibody with IgG1 heavy chain backbone and kappa light chain constant; they begin at LVESGGG and MTQSP; also called mAb 7968; mAb7968
As for B2, the AtheNA signal was determined as 4 in [1]; 7 with Sm (sphingomyelin) [2]; 12 in assay [16]; 7 in the assay with ribonucleoprotein (RNP) [3]; 3 in assay [4]; 2 in assay [5]. Also, the AtheNA signal in assay [6] was 7; with Sm (sphingomyelin) [7], 7; with ribonucleoprotein (RNP) [8], 10; in assay [9], 4; in [10], 7; in assay [11] it was 4. Also, the AtheNA signal with Sm (sphingomyelin) [12] came to 4; with ribonucleoprotein (RNP) [13] it was 7; in [14] it was 3; in assay [15], 4.

B3: Ab7962/293i (antibody, V domains shown)
VH: LVESGGGLVQPGGSLRLSCAASGFTFSSYEMNWVRQAPGKGLEWVSYISSSGSTIYYADSVKGRFTISRDNAKNSLYLQMNSLRAEDTAVYYCARVEQLAPSPYMDVWGKGTTVTVSS
VL: MTQSLDSLTVSLGERATINCKSSQSLLYTSNNKNYLAWYQQKSGQPPKLLIYWASIRDSGVPDRFSGSGSATDFTLTINNLQAEDVAVYFCQQYYKTPLTFGGGTKVEVR
notes: Recombinant human antibody with IgG1 heavy chain backbone and kappa light chain constant (IgM in the donor B cell); they begin at LVESGGG and MTQSL; also called clone 27; pH007962/pK005996
For B3, the AtheNA signal in [1] was determined as 2; with Sm (sphingomyelin) [2], 3; in assay [16], 5; with ribonucleoprotein (RNP) [3], 3; in assay [4] it was 2; in assay [5], 5. Further, the AtheNA signal in [6] was 2; with Sm (sphingomyelin) [7] it was 4; with ribonucleoprotein (RNP) [8], 5; in assay [9], 2; in assay [10], 4; in [11] it was 2. Besides, the AtheNA signal with Sm (sphingomyelin) [12] was 4; with ribonucleoprotein (RNP) [13], 2; in assay [14] it was 1; in [15] it was 4.
